This passage reports Kd results from article PMC5815017.

For series [1], the target named is T1, ParB (Caulobacter crescentus) (UniProt B8GW30).
T1 sequence: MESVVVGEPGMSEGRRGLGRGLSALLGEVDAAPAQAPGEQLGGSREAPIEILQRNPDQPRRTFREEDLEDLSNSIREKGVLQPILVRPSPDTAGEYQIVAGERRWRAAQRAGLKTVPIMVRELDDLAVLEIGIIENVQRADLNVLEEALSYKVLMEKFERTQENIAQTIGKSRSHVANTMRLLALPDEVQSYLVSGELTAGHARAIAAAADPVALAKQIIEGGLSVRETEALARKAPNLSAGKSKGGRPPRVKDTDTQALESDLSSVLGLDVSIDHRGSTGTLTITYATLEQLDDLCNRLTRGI
Nature of the series: SPR. As to conditions: value assigned by figure order; SPR (ReDCaT, Biacore T200), HBS-EP+: 10 mM HEPES pH 7.4, 150 mM NaCl, 3 mM EDTA, 0.005% Surfactant P20, 25 C; ParB given as dimer. For orientation: In SPR one partner is held on a chip, and binding of the other changes the refractive index at the surface.

Series [2] addresses T2, Spo0J (ParB) (Bacillus subtilis) (UniProt P26497).
T2 sequence: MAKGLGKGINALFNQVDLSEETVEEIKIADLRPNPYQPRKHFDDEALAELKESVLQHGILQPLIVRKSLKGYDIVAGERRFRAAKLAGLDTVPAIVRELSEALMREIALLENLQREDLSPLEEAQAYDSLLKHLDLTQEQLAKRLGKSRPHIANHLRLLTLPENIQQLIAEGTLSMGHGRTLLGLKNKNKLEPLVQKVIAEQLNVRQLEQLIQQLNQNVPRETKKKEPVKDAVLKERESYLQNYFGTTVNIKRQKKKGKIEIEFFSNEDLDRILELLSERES
Nature of the series: SPR. As to conditions: apparent Kd; SPR (ReDCaT, Biacore T200), HBS-EP+: 10 mM HEPES pH 7.4, 150 mM NaCl, 3 mM EDTA, 0.005% Surfactant P20, 25 C; ParB given as dimer.

The sequence “CGATGTTTCCACGTGAAACAAGGC / GCCTTGTTTCACGTGGAAACATCGCCTACCCTACGTCCTCCTGC [parS site 7]” gave a Kd in series [1] of 144 nM.

Take “AGAATGTTCCACGTGAAACAAAGA / TCTTTGTTTCACGTGGAACATTCTCCTACCCTACGTCCTCCTGC [B. subtilis parS 359]”: the Kd in series [2] was found to be 114 nM.
